Values belong to the molecule of their own block, whether it stands above or below them.
Experiments:
[1] = target: mannose-6-phosphate receptor (M6PR); assay: SPR (BIACORE T200), M6PR on CM5 chip; the reference itself
[2] = target: mannose-6-phosphate receptor (M6PR) expressed on CCD986SK cells (human skin fibroblasts) (human); assay: cell-based or functional assay
[3] = target: mannose-6-phosphate receptor (M6PR); assay: SPR (BIACORE T200), M6PR amine-coupled to CM5 chip, analyte 200 nM to 12.5 nM in HBS-EP
[4] = target: mannose-6-phosphate receptor (M6PR); assay: SPR (BIACORE T200), M6PR amine-coupled to CM5 chip, analyte 100 nM to 6.24 nM, HBS-EP pH 7.5, 1:1 Langmuir model
[5] = target: mannose-6-phosphate receptor (M6PR); assay: SPR (BIACORE T200), M6PR amine-coupled to CM5 chip, analyte 50 nM to 3.125 nM, HBS-EP pH 7.5, 1:1 Langmuir model
[6] = target: mannose-6-phosphate receptor (M6PR); assay: SPR, summary table; relative to galsulfase
[7] = target: mannose-6-phosphate receptor (M6PR); assay: SPR, summary table; relative to agalsidase β
[8] = target: mannose-6-phosphate receptor (M6PR); assay: SPR (BIACORE T200), M6PR on CM5 chip; relative to agalsidase beta
[9] = target: mannose-6-phosphate receptor (M6PR); assay: SPR (BIACORE T200), M6PR amine-coupled to CM5 chip
[10] = target: mannose-6-phosphate receptor (M6PR); assay: SPR (BIACORE T200), M6PR amine-coupled to CM5 chip, analyte 100 nM to 6.25 nM, HBS-EP pH 7.5, 1:1 Langmuir model
[11] = target: mannose-6-phosphate receptor (M6PR); assay: SPR, summary table; relative to iduronidase
[12] = target: mannose-6-phosphate receptor (M6PR); assay: SPR, summary table; relative to imiglucerase
[13] = target: mannose-6-phosphate receptor (M6PR); assay: SPR (BIACORE T200), M6PR amine-coupled to CM5 chip, analyte 200 nM to 12.5 nM, HBS-EP pH 7.5, 1:1 Langmuir model

relative KD / binding affinity (% of agalsidase beta) [1]: 100%
relative ka (% of agalsidase beta) [1]: 100%
relative kd (% of agalsidase beta) [1]: 100%
intracellular uptake activity (Kuptake) [2]: 13.7 nM
Kd [3]: 20 nM
koff [3]: 0.00273 s⁻¹
kon [3]: 135000 M⁻¹ s⁻¹
Molecule: agalsidase β (from UniProt P06280 32-429) (enzyme)

Kd [4]: 0.38 nM
koff [4]: 0.0013 s⁻¹
kon [4]: 3.49e+06 M⁻¹ s⁻¹
Molecule: galsulfase (from UniProt P15848 39-533) (enzyme)

Kd [5]: 0.59 nM
koff [5]: 0.00565 s⁻¹
kon [5]: 1.69e+07 M⁻¹ s⁻¹
Molecule: iduronidase (from UniProt P35475 26-653) (enzyme)

Kd [4]: 17.3 nM
koff [4]: 0.00387 s⁻¹
kon [4]: 232000 M⁻¹ s⁻¹
Molecule: imiglucerase (from UniProt P04062 40-536) (enzyme)

Kd [4]: 1.48 nM
koff [4]: 0.00122 s⁻¹
kon [4]: 832000 M⁻¹ s⁻¹
Binding affinity to M6PR (vs. 1st ERT) [6]: 25%
Molecule: long-acting galsulfase conjugate (galsulfase-polyethylene glycol linker-immunoglobulin Fc conjugate) (from UniProt P15848 39-533)

Binding affinity to M6PR (vs. 1st ERT) [7]: 68%
relative KD / binding affinity (% of agalsidase beta) [8]: 67.6%
relative ka (% of agalsidase beta) [8]: 70.4%
relative kd (% of agalsidase beta) [8]: 101%
Kd [9]: 29.6 nM
koff [9]: 0.00277 s⁻¹
kon [9]: 80000 M⁻¹ s⁻¹
Intracellular uptake (vs. 1st ERT) [2]: 47%
intracellular uptake activity (Kuptake) [2]: 29.3 nM
B1: long-acting agalsidase β conjugate (agalsidase β-polyethylene glycol linker-immunoglobulin Fc conjugate) (protein, part only; not given: Fc and PEG linker, UniProt P06280 32-429, looked up, not shown: a dimerising Fc or GST)
chain: LDNGLARTPTMGWLHWERFMCNLDCQEEPDSCISEKLFMEMAELMVSEGWKDAGYEYLCIDDCWMAPQRDSEGRLQADPQRFPHGIRQLANYVHSKGLKLGIYADVGNKTCAGFPGSFGYYDIDAQTFADWGVDLLKFDGCYCDSLENLADGYKHMSLALNRTGRSIVYSCEWPLYMWPFQKPNYTEIRQYCNHWRNFADIDDSWKSIKSILDWTSFNQERIVDVAGPGGWNDPDMLVIGNFGLSWNQQVTQMALWAIMAAPLFMSNDLRHISPQAKALLQDKDVIAINQDPLGKQGYQLRQGDNFEVWERPLSGLAWAVAMINRQEIGGPRSYTIAVASLGKGVACNPACFITQLLPVKRKLGFYEWTSRLRSHINPTGTVLLQLENTMQMSLKDLL
modifications: N-terminus covalently linked to a 10 kDa polyethylene glycol linker (ALD-PEG-ALD), whose other end is linked to the N-terminus of one chain of the immunoglobulin Fc

Kd [10]: 4.72 nM
koff [10]: 0.00223 s⁻¹
kon [10]: 474000 M⁻¹ s⁻¹
Binding affinity to M6PR (vs. 1st ERT) [11]: 13%
B2: long-acting iduronidase conjugate (laronidase-polyethylene linker-immunoglobulin Fc conjugate) (protein, part only; not given: Fc and PEG linker, UniProt P35475 26-653, looked up, not shown: a dimerising Fc or GST)
chain: AEAPHLVHVDAARALWPLRRFWRSTGFCPPLPHSQADQYVLSWDQQLNLAYVGAVPHRGIKQVRTHWLLELVTTRGSTGRGLSYNFTHLDGYLDLLRENQLLPGFELMGSASGHFTDFEDKQQVFEWKDLVSSLARRYIGRYGLAHVSKWNFETWNEPDHHDFDNVSMTMQGFLNYYDACSEGLRAASPALRLGGPGDSFHTPPRSPLSWGLLRHCHDGTNFFTGEAGVRLDYISLHRKGARSSISILEQEKVVAQQIRQLFPKFADTPIYNDEADPLVGWSLPQPWRADVTYAAMVVKVIAQHQNLLLANTTSAFPYALLSNDNAFLSYHPHPFAQRTLTARFQVNNTRPPHVQLLRKPVLTAMGLLALLDEEQLWAEVSQAGTVLDSNHTVGVLASAHRPQGPADAWRAAVLIYASDDTRAHPNRSVAVTLRLRGVPPGPGLVYVTRYLDNGLCSPDGEWRRLGRPVFPTAEQFRRMRAAEDPVAAAPRPLPAGGRLTLRPALRLPSLLLVHVCARPEKPPGQVTRLRALPLTQGQLVLVWSDEHVGSKCLWTYEIQFSQDGKAYTPVSRKPSTFNLFVFSPDTGAVSGSYRVRALDYWARPGPFSDPVPYLEVPVPRGPPSPGNP
modifications: N-terminus covalently linked to a 10 kDa polyethylene glycol linker (ALD-PEG-ALD), whose other end is linked to the N-terminus of one chain of the immunoglobulin Fc

Binding affinity to M6PR (vs. 1st ERT) [12]: 22%
Kd [13]: 79.6 nM
koff [13]: 0.0039 s⁻¹
kon [13]: 49000 M⁻¹ s⁻¹
B3: long-acting imiglucerase conjugate (imiglucerase-polyethylene glycol linker-immunoglobulin Fc conjugate) (protein, part only; not given: Fc and PEG linker, human, UniProt P04062 40-536, looked up, not shown: a dimerising Fc or GST)
chain: ARPCIPKSFGYSSVVCVCNATYCDSFDPPTFPALGTFSRYESTRSGRRMELSMGPIQANHTGTGLLLTLQPEQKFQKVKGFGGAMTDAAALNILALSPPAQNLLLKSYFSEEGIGYNIIRVPMASCDFSIRTYTYADTPDDFQLHNFSLPEEDTKLKIPLIHRALQLAQRPVSLLASPWTSPTWLKTNGAVNGKGSLKGQPGDIYHQTWARYFVKFLDAYAEHKLQFWAVTAENEPSAGLLSGYPFQCLGFTPEHQRDFIARDLGPTLANSTHHNVRLLMLDDQRLLLPHWAKVVLTDPEAAKYVHGIAVHWYLDFLAPAKATLGETHRLFPNTMLFASEACVGSKFWEQSVRLGSWDRGMQYSHSIITNLLYHVVGWTDWNLALNPEGGPNWVRNFVDSPIIVDITKDTFYKQPMFYHLGHFSKFIPEGSQRVGLVASQKNDLDAVALMHPDGSAVVVVLNRSSKDVPLTIKDPAVGFLETISPGYSIHTYLWRRQ
modifications: N-terminus covalently linked to a 10 kDa polyethylene glycol linker (ALD-PEG-ALD), whose other end is linked to the N-terminus of one chain of the immunoglobulin Fc
